In patent publication US20060121462A1 (published 2006):

T1: human C3a receptor (C3aR) (human, UniProt Q16581 1-482)
T1 construct: whole, on cells
T1 sequence (looked up): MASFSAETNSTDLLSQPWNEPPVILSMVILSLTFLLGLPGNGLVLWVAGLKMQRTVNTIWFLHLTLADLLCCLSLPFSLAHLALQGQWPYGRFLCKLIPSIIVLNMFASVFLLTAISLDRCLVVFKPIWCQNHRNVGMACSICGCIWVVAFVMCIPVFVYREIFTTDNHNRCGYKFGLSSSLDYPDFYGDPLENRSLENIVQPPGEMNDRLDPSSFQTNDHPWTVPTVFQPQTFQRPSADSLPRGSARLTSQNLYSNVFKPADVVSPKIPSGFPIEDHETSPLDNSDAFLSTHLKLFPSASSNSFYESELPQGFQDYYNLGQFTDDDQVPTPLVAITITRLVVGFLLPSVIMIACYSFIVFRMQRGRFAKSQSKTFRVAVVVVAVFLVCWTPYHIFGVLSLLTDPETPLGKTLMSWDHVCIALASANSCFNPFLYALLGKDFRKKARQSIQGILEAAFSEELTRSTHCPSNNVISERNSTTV

T2: human CD88 (C5a receptor) (human, UniProt P21730 1-350)
T2 construct: whole, on cells
T2 sequence (looked up): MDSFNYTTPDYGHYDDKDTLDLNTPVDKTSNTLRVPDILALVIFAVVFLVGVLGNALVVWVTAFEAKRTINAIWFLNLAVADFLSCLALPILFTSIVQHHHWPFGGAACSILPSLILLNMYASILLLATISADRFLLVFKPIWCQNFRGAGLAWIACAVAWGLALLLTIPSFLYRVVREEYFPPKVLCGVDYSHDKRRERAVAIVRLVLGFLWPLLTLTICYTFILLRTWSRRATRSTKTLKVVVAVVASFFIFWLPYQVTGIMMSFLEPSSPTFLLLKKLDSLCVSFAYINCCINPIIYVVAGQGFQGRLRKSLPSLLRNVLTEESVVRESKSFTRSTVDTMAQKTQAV

B1: recombinant C4a des-Arg^77 (ligand, UniProt P0C0L4 680-755, looked up)
chain: NVNFQKAINEKLGQYASPTAKRCCQDGVTRLPMMRSCEQRAARVQQPDCREPFLSCCQFAESLRKKSRDKGQAGLQ
notes: domain: C4a des-Arg^77; Expressed and purified under non-denaturing conditions; also called C4adR^77
B2: recombinant C3a des-Arg^77 (ligand)
chain: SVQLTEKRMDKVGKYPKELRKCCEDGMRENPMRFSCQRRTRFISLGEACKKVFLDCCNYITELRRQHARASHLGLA
notes: Recombinant form, expressed and purified under non-denaturing conditions; also called C3adR^77
B3: recombinant His6-tagged C5a des-Arg^74 (ligand, UniProt P01031 678-750, looked up)
chain: TLQKKIEEIAAKYKHSVVKKCCYDGACVNNDETCEQRAARISLGPRCIKAFTECCVVASQLRANISHKDMQLG
notes: domain: C5a des-Arg^74; also called C5adR^74; not shown: His6 tag
B4: recombinant C4a (ligand, UniProt P0C0L4 680-756, looked up)
chain: NVNFQKAINEKLGQYASPTAKRCCQDGVTRLPMMRSCEQRAARVQQPDCREPFLSCCQFAESLRKKSRDKGQAGLQR
notes: domain: C4a; Expressed and purified under non-denaturing conditions
B5: recombinant His6-tagged C5a (ligand, UniProt P01031 678-751, looked up)
chain: TLQKKIEEIAAKYKHSVVKKCCYDGACVNNDETCEQRAARISLGPRCIKAFTECCVVASQLRANISHKDMQLGR
notes: domain: C5a; Expressed and purified under denaturing conditions; not shown: His6 tag
B6: recombinant His6-tagged C3a (ligand)
chain: not shown
notes: domain: C3a; Expressed and purified under denaturing conditions; not shown: His6 tag
B7: plasma ASP (C3a des-Arg^77), purified from human plasma (ligand)
chain: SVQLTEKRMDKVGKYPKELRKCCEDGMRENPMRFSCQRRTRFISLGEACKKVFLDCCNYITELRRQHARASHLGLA
modifications: FLUOS (fluorescein) label in the flow cytometry assays, ^125I label in one assay; labelled residues not stated
notes: Unlabelled in the functional assays; also called acylation stimulating protein; FLUOS-ASP
B8: plasma C3a, purified human C3a (ligand)
chain: not shown
modifications: FLUOS (fluorescein) label; labelled residues not stated
notes: domain: C3a; also called FLUOS-C3a

Molecular target: T3, human C5L2 (human, UniProt Q9P296 1-337)
T3 sequence (Q9P296 whole entry): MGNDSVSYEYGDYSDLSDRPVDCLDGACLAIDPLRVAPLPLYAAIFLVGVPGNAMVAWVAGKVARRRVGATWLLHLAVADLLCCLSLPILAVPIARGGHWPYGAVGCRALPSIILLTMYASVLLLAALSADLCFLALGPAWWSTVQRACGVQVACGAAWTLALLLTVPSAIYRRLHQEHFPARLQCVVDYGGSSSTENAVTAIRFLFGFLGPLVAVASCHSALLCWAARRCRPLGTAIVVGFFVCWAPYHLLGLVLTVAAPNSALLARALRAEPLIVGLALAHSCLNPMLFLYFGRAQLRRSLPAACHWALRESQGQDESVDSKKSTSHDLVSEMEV
Experiment: cell-based or functional assay

Row | Binder | activity in the degranulation-enhancement assay against C3a des-Arg^77, C5L2-transfected RBL cells [fold]
1 | B1 | 230

Molecular target: T1, human C3a receptor (C3aR)
Experiment: radioligand competition on C3aR-transfected RBL cells

Row | Binder | binding result
2 | B2 | no binding (tested: pD2 <4)

Molecular target: T3, human C5L2
Experiment: radioligand competition on transfected RBL cells (Table I)

Row | Binder | fold higher affinity for C5L2 than for C3aR [fold]
3 | B1 | 1000

Molecular target: T3, human C5L2
Experiment: competition with 50 pM 125I-C3a on C5L2-transfected RBL cells, 4 C
Description: (§1) Competition binding assays were performed using 50 pM ¹²⁵I-C5a or ¹²⁵I-C3a (NEN) on adherent C5aR-transfected or C5L2-transfected RBL cells in 96-well microtiter plates (55 000/well) at 4° C. as described previously (22). Competition curves were generated by pre-incubating adherent cells with increasing concentrations of unlabelled complement fragments. The IC₅₀, standard error values and linear regression analyses were obtained by using GraphPad Prism 2.0.

Row | Binder | IC50 [nM] | pD2
4 | B1 | 177 | 6.75 -log IC50
5 | B3 | – | < 3 -log IC50
6 | B4 | 485 | 6.31 -log IC50
7 | B5 | 293 | 6.53 -log IC50

Molecular target: T3, human C5L2
Experiment: competition with 50 pM 125I-C5a on C5L2-transfected RBL cells, 4 C
Description: as §1

Row | Binder | IC50 [nM] | pD2
8 | B1 | 170000 | 4.72 -log IC50
9 | B3 | 36.9 | 7.43 -log IC50
10 | B4 | 3790 | 5.42 -log IC50
11 | B5 | 8.17 | 8.09 -log IC50

Molecular target: T2, human CD88 (C5a receptor)
Experiment: competition with 50 pM 125I-C5a on CD88-transfected RBL cells, 4 C
Description: as §1

Row | Binder | IC50 [nM] | pD2
12 | B6 | 230000 | 4.64 -log IC50
13 | B3 | 411 | 6.39 -log IC50
14 | B4 | 4440 | 5.35 -log IC50
15 | B5 | 20.5 | 7.69 -log IC50

Molecular target: T1, human C3a receptor (C3aR)
Experiment: flow cytometry, FLUOS-ASP on HEK 293 cells transiently transfected with C3aR
Description: (§2) HEK 293 cells were transfected with C3aR (A) or C5L2 (B) and three days later cells were incubated for 30 minutes with the indicated concentrations of FLUOS-labelled C3a or ASP, respectively. Binding/uptake was assessed by FACS, and the percentage of cells above a fluorescence intensity of 8 was determined. The fluorescence histograms at the highest and lowest ligand concentrations are shown in the insets;
(§3) Recombinant C3a des-Arg⁷⁷ can clearly compete with ¹²⁵I-C3a for binding to C5L2, so we then directly measured the affinity of C3a des-Arg⁷⁷ for C5L2, using protein purified from human plasma as ASP. ASP and purified human C3a were labelled with FLUOS. Increasing concentrations of ASP were incubated with HEK 293 cells transiently transfected with C5L2 and binding and uptake assessed by flow cytometry (FIG. 2A). FLUOS-ASP clearly binds to C5L2, with half maximal fluorescence intensity at approximately 3 nM, whereas mock-tansfected cells show no binding of ASP even at a high concentration of 10 nM. For comparison purposes, the binding of FLUOS-C3a and FLUOS-ASP to HEK 293 cells transiently transfected with C3aR is shown (FIG. 2B). […] Thus, C5L2 has binding characteristics that overlap with both CD88 and C3aR but also the unique ability to bind ASP/C3a des-Arg⁷⁷.

Row | Binder | binding result
16 | B7 | no binding

Molecular target: T1, human C3a receptor (C3aR)
Experiment: radioligand competition on C3aR-transfected RBL cells (radioligand not given)

Row | Binder | IC50 [nM] | pD2
17 | B6 | 155 | 6.81 -log IC50
18 | B1 | 100000 | 4.99 -log IC50
19 | B3 | 9670 | 5.02 -log IC50
20 | B4 | 250 | 6.6 -log IC50
21 | B2 | – | < 4 -log IC50
22 | B5 | 2900 | 5.54 -log IC50

Molecular target: T1, human C3a receptor (C3aR)
Experiment: flow cytometry, binding/uptake of FLUOS-C3a on HEK 293 cells transiently transfected with C3aR, 30 min at 37 C
Description: as §2, §3

Row | Binder | EC50 [nM]
23 | B8 | 2.5
